Drawing on US20250339519A1 (ASHER BIOTHERAPEUTICS, published 2025), this text covers Kd for two molecules.

The target of this test is human IL-21 receptor (human, UniProt Q9HBE5 20-232, limits assumed). In words: KD at 37 C; method and format not stated.
Chain of human IL-21 receptor (Q9HBE5 20-232 limits assumed): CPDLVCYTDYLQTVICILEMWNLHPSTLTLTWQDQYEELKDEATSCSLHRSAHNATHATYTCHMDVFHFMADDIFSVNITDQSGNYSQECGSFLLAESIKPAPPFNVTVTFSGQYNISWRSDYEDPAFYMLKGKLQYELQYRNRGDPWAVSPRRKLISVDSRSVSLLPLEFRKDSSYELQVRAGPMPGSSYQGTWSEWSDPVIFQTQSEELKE

B1: IL-21 v31.23 (ligand)
chain: QGQDRHMIRMRQLIDIVDQLKNYVNDLVPEFLPAPEDVETNCEWSAFSCFQKAQLKSANTGNNERIINVSIKKLKQKPPGGEGGGGGGGEGGCPSCDSYEKKPPKEFLERFKSLLQKMIHQHLSSRTHGSEDS
notes: also called hIL21 v31.23
B1 registered a dissociation constant Kd of 6.06 µM.

B2: IL-21 v31.51 (ligand)
chain: QGQDRHMIGMRQLIDIVDQLKNYVNDLVPEFLPAPEDVETNCEWSAFSCFQKAQLKSANTGNNERIINVSIKKLKRKPPGGEGGGGGGGEGGCPSCDSYEKKPPKEFLERFKSLLQKMIHQHLSSRTHGSEDS
notes: also called hIL21 v31.51
With B2, the affinity, expressed as Kd, was 7.73 µM.
